Assay results from patent publication US20250179138.

Tested on: ACP11 (human p40/murine p35 IL-12 fusion protein)

Sequence of active MMP9 (Sigma catalog #SAE0078-50 or Enzo catalog BML-SE360) (chain, as listed by the source): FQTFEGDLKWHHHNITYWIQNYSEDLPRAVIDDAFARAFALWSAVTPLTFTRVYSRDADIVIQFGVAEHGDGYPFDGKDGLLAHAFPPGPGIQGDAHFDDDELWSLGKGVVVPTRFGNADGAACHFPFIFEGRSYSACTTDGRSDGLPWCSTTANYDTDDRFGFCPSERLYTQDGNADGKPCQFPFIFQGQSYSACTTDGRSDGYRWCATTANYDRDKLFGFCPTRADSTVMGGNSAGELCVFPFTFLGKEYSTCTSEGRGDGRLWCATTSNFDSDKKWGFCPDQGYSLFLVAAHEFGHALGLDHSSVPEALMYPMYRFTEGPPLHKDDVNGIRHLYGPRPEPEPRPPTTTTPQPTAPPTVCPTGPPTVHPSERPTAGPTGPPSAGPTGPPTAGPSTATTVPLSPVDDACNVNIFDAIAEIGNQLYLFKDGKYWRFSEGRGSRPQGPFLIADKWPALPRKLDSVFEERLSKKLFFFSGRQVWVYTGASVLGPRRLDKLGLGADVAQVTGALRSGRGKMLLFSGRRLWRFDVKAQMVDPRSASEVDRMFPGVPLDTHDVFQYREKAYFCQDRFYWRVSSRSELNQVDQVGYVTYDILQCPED

active MMP9 (Sigma catalog #SAE0078-50 or Enzo catalog BML-SE360)
protein cleavage assay, extent of cleavage monitored by SDS PAGE: the ACP11 fusion protein was cleaved by MMP9 protease
